The numbers were not newly measured in publication PMC5883021, which cites them from elsewhere.

The target in this data set is F-actin (Oryctolagus cuniculus) (UniProt P68135).

Take TAGLN2 (from UniProt P37802): the Kd is 7.39 µM.

As a reminder, the Kd is the constant that tells how readily two partners part at equilibrium.
